Patent US20260232769A1 (WUXI BIOLOGICS IRELAND, published 2026)

T1: IL-2Rβ/γc complex (intermediate affinity receptor) on primary human CD8+ T cells (human, UniProt P14784 27-551; P31785 23-369)
T1 sequence (looked up) 1: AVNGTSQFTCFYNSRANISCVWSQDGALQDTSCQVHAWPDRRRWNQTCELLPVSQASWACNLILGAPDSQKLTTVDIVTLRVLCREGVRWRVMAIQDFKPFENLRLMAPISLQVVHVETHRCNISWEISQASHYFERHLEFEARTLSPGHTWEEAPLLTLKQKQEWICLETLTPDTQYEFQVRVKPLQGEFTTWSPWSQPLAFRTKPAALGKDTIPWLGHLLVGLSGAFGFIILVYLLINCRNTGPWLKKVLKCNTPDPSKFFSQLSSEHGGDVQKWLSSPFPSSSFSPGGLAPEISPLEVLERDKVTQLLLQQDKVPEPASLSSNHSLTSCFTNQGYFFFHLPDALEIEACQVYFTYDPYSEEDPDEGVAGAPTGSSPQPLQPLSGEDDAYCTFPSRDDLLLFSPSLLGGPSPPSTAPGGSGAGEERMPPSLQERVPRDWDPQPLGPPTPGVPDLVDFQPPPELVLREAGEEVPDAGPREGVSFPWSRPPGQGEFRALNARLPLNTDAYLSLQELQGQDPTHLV
T1 sequence (looked up) 2: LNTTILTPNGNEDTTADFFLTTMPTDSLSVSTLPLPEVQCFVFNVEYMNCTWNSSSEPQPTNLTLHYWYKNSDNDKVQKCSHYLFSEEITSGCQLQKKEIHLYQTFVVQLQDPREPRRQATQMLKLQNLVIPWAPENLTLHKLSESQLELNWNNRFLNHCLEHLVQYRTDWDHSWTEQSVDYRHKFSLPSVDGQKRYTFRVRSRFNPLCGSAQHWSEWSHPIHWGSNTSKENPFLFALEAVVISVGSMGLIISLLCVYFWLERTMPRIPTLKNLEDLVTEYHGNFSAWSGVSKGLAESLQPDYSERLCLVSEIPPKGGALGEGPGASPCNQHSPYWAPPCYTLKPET

T2: IL-2Rα/β/γc complex (high affinity receptor) on human activated CD8+ T cells (human, UniProt P01589 22-272; P14784 27-551; P31785 23-369)
T2 sequence (looked up) 1: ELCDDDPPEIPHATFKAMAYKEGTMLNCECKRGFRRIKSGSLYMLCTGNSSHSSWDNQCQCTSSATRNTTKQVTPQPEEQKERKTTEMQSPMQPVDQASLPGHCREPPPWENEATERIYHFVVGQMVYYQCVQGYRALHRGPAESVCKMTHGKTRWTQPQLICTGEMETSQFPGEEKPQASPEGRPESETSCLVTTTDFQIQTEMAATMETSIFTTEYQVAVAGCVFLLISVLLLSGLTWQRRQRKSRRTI
T2 sequence (looked up) 2: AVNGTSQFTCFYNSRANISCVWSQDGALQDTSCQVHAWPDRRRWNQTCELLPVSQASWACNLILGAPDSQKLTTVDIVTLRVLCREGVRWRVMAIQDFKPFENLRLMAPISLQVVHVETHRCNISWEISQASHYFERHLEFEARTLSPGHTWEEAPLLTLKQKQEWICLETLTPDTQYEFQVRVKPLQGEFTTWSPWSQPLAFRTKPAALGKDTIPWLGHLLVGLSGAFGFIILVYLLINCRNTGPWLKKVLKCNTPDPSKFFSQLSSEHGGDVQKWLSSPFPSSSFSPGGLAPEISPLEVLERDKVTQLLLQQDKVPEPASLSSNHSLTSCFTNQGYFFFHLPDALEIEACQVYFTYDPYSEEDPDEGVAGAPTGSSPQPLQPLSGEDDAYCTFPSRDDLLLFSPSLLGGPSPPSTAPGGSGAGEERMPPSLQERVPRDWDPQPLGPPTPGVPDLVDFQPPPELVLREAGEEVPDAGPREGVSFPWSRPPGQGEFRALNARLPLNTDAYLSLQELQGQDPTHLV
T2 sequence (looked up) 3: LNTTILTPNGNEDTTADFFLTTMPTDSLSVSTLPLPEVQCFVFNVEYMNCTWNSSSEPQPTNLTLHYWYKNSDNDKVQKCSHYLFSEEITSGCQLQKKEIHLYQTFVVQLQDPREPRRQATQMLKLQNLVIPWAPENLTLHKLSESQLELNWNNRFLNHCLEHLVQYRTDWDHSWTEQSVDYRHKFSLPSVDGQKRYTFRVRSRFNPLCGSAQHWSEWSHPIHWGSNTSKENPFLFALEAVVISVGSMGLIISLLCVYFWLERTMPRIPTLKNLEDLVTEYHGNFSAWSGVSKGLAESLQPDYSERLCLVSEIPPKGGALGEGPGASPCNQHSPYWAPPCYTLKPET


Key:
Assay in all cases: cell-based or functional assay
[1] = target: T1, IL-2Rβ/γc complex (intermediate …)
[2] = target: PD-1 (on CHO-PD1 engineered cell line; on activated CD8+ T cells) (UniProt Q15116 25-288, limits assumed)
[3] = target: T2, IL-2Rα/β/γc complex (high affinity …)

Potency reduction, pSTAT5, human primary CD8+ T [1] [fold] | pSTAT5 EC50, human primary CD8+ T [1] | PD-1+/PD-1- ratio (pSTAT5 potency, activated versus primary CD8+ T) [2] [fold] | Potency reduction, pSTAT5, human activated CD8+ T (CD25 positive and PD-1 positive) [3] [fold] | pSTAT5 EC50, human activated CD8+ T (CD25 positive and PD-1 positive) [3] [nM] | Binder
132 | 1.87 µM | 496 | 139 | 3.78 | W3XX115-T2U3.E44-15.uIgG4V322 (Fc fusion) APTSSSTKKTQLQLEHLLLDLQMILNGINNYKNPKLTRMLTVKFYMPKKATELKHLQCLEEELKPLEEVLNLAQSKNFHLRPRDLISNINVIVLELKGSETTFMCEYADETATIVEFLNRWITFCQSIIESKYGPPCPPCPAPEAAGGPSVFLFPPKPKDTLMISRTPEVTCVVVDVSQEDPEVQFNWYVDGVEVHNAKTKPREEQFNSTYRVVSVLTVLHQDWLNGKEYKCKVSNKGLPSSIEKTISKAKGQPREPQVYTLPPCQEEMTKNQVSLWCLVKGFYPSDIAVEWESNGQPENNYKTTPPVLDSDGSFFLYSRLTVDKSRWQEGNVFSCSVMHEALHNHYTQKSLSLSLGK heavy: QVQLVQSGAEVKKPGSSVKVSCKASGFTFTTYYISWVRQAPGQGLEYLGYINMGSGGTNYNEKFKGRVTITADKSTSTAYMELSSLRSEDTAVYYCAIIGYFDYWGQGTMVTVSSASTKGPSVFPLAPCSRSTSESTAALGCLVKDYFPEPVTVSWNSGALTSGVHTFPAVLQSSGLYSLSSVVTVPSSSLGTKTYTCNVDHKPSNTKVDKRVESKYGPPCPPCPAPEAAGGPSVFLFPPKPKDTLMISRTPEVTCVVVDVSQEDPEVQFNWYVDGVEVHNAKTKPREEQFNSTYRVVSVLTVLHQDWLNGKEYKCKVSNKGLPSSIEKTISKAKGQPREPQVCTLPPSQEEMTKNQVSLSCAVKGFYPSDIAVEWESNGQPENNYKTTPPVLDSDGSFFLVSRLTVDKSRWQEGNVFSCSVMHEALHNHYTQKSLSLSLGK light: DVVMTQSPLSLPVTLGQPASISCRSSQSLLDSDGGTYLYWFQQRPGQSPRRLIYLVSTLGSGVPDRFSGSGSGTDFTLKISRVEAEDVGVYYCMQLTHWPYTFGQGTKLEIKRTVAAPSVFIFPPSDEQLKSGTASVVCLLNNFYPREAKVQWKVDNALQSGNSQESVTEQDSKDSTYSLSSTLTLSKADYEKHKVYACEVTHQGLSSPVTKSFNRGEC
56.8 | 809 nM | 669 | 44.3 | 1.21 | W3XX115-T2U3.E44-20.uIgG4V322 (Fc fusion) APTSSSTKKTQLQLEHLLLDLQMILNGINNYKNPKLTWMLTFKFYMPKKATELKHLQCLEEELKPLEEVLNLAQSKNFHLRPRDLISNINVIVLELKGSETTFMCEYADETATIVEFLNRWITFCQSIIESKYGPPCPPCPAPEAAGGPSVFLFPPKPKDTLMISRTPEVTCVVVDVSQEDPEVQFNWYVDGVEVHNAKTKPREEQFNSTYRVVSVLTVLHQDWLNGKEYKCKVSNKGLPSSIEKTISKAKGQPREPQVYTLPPCQEEMTKNQVSLWCLVKGFYPSDIAVEWESNGQPENNYKTTPPVLDSDGSFFLYSRLTVDKSRWQEGNVFSCSVMHEALHNHYTQKSLSLSLGK heavy: QVQLVQSGAEVKKPGSSVKVSCKASGFTFTTYYISWVRQAPGQGLEYLGYINMGSGGTNYNEKFKGRVTITADKSTSTAYMELSSLRSEDTAVYYCAIIGYFDYWGQGTMVTVSSASTKGPSVFPLAPCSRSTSESTAALGCLVKDYFPEPVTVSWNSGALTSGVHTFPAVLQSSGLYSLSSVVTVPSSSLGTKTYTCNVDHKPSNTKVDKRVESKYGPPCPPCPAPEAAGGPSVFLFPPKPKDTLMISRTPEVTCVVVDVSQEDPEVQFNWYVDGVEVHNAKTKPREEQFNSTYRVVSVLTVLHQDWLNGKEYKCKVSNKGLPSSIEKTISKAKGQPREPQVCTLPPSQEEMTKNQVSLSCAVKGFYPSDIAVEWESNGQPENNYKTTPPVLDSDGSFFLVSRLTVDKSRWQEGNVFSCSVMHEALHNHYTQKSLSLSLGK light: DVVMTQSPLSLPVTLGQPASISCRSSQSLLDSDGGTYLYWFQQRPGQSPRRLIYLVSTLGSGVPDRFSGSGSGTDFTLKISRVEAEDVGVYYCMQLTHWPYTFGQGTKLEIKRTVAAPSVFIFPPSDEQLKSGTASVVCLLNNFYPREAKVQWKVDNALQSGNSQESVTEQDSKDSTYSLSSTLTLSKADYEKHKVYACEVTHQGLSSPVTKSFNRGEC
26.2 | 373 nM | 283 | 48.6 | 1.32 | W3XX115-T2U3.E44-33.uIgG4V322 (Fc fusion) APTSSSTKKTQLQLEHLLLDLQMILNGINNYKNPKLTWMLTFKFYMPKKATELKHLQCLEEELKPLEEVLNLAQSKNFHLRPRDLISNINVIVLELKGSETTFMCEYADETATIVEFLNRWITFCQSILESKYGPPCPPCPAPEAAGGPSVFLFPPKPKDTLMISRTPEVTCVVVDVSQEDPEVQFNWYVDGVEVHNAKTKPREEQFNSTYRVVSVLTVLHQDWLNGKEYKCKVSNKGLPSSIEKTISKAKGQPREPQVYTLPPCQEEMTKNQVSLWCLVKGFYPSDIAVEWESNGQPENNYKTTPPVLDSDGSFFLYSRLTVDKSRWQEGNVFSCSVMHEALHNHYTQKSLSLSLGK heavy: QVQLVQSGAEVKKPGSSVKVSCKASGFTFTTYYISWVRQAPGQGLEYLGYINMGSGGTNYNEKFKGRVTITADKSTSTAYMELSSLRSEDTAVYYCAIIGYFDYWGQGTMVTVSSASTKGPSVFPLAPCSRSTSESTAALGCLVKDYFPEPVTVSWNSGALTSGVHTFPAVLQSSGLYSLSSVVTVPSSSLGTKTYTCNVDHKPSNTKVDKRVESKYGPPCPPCPAPEAAGGPSVFLFPPKPKDTLMISRTPEVTCVVVDVSQEDPEVQFNWYVDGVEVHNAKTKPREEQFNSTYRVVSVLTVLHQDWLNGKEYKCKVSNKGLPSSIEKTISKAKGQPREPQVCTLPPSQEEMTKNQVSLSCAVKGFYPSDIAVEWESNGQPENNYKTTPPVLDSDGSFFLVSRLTVDKSRWQEGNVFSCSVMHEALHNHYTQKSLSLSLGK light: DVVMTQSPLSLPVTLGQPASISCRSSQSLLDSDGGTYLYWFQQRPGQSPRRLIYLVSTLGSGVPDRFSGSGSGTDFTLKISRVEAEDVGVYYCMQLTHWPYTFGQGTKLEIKRTVAAPSVFIFPPSDEQLKSGTASVVCLLNNFYPREAKVQWKVDNALQSGNSQESVTEQDSKDSTYSLSSTLTLSKADYEKHKVYACEVTHQGLSSPVTKSFNRGEC
